Assay [1] addresses T1, FA complementation group G (human, UniProt O15287 1-622).
T1 construct: HuProt array protein, full-length recombinant from yeast; also called FANCG
T1 sequence: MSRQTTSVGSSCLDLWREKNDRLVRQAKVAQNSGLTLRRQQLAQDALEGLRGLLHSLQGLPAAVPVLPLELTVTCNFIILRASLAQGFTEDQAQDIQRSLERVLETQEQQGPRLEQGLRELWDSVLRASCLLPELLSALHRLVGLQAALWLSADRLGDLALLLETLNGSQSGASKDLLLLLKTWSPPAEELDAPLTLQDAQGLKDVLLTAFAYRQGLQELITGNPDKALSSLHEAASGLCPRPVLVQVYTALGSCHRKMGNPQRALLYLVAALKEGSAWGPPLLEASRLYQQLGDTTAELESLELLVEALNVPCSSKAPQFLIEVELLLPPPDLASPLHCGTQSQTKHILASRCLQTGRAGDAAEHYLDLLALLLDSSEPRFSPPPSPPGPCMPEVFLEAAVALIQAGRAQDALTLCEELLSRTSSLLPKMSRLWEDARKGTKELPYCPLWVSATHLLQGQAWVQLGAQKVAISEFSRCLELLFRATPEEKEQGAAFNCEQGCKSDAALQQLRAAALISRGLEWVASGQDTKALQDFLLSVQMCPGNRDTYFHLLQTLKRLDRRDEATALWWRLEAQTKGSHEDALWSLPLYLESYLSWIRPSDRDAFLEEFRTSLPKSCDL

Assay [2] addresses T2, X-linked inhibitor of apoptosis, transcript variant 2 (human, UniProt P98170 1-497).
T2 construct: HuProt array protein, full-length recombinant from yeast; also called XIAP

The target of assay [3] is T3, syntaxin 1A, transcript variant 1 (human, UniProt Q16623 1-288).
T3 construct: HuProt array protein, full-length recombinant from yeast; also called STX1A

Assay [4] deals with T4, geminin DNA replication inhibitor, transcript variant 1 (human, UniProt O75496 1-209).
T4 construct: HuProt array protein, full-length recombinant from yeast; also called GMNN
T4 sequence: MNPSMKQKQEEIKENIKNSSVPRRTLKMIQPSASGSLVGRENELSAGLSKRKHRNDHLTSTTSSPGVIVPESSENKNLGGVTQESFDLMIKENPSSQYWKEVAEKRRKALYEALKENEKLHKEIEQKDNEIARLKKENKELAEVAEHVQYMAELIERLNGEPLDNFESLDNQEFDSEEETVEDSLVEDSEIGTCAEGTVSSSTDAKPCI

For the next assay, the target named is T5, DEAD-box helicase 18 (human, UniProt Q9NVP1 1-670).
T5 construct: HuProt array protein, full-length recombinant from yeast; also called DDX18
T5 sequence: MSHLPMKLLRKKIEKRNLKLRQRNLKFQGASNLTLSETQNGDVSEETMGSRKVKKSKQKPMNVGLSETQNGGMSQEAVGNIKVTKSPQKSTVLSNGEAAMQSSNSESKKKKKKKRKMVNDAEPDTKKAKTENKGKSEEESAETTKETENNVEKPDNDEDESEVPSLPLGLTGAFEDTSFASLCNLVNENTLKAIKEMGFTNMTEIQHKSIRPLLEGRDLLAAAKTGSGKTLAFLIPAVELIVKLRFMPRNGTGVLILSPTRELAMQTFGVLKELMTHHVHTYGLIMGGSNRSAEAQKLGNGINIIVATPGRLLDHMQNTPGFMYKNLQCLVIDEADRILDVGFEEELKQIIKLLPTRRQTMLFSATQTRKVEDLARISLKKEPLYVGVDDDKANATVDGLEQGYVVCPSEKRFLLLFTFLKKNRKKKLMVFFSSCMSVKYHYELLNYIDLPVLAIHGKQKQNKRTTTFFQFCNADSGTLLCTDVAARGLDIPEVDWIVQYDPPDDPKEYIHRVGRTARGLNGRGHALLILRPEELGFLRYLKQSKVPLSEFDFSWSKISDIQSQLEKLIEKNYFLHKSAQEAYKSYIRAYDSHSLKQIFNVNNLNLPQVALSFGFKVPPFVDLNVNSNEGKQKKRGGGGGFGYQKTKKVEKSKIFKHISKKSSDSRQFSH

Assay [5] addresses T6, Egf like and emi domain containing 1, pseudogene (human, UniProt Q0D2K5 1-195).
T6 construct: HuProt array protein; pseudogene product; also called EGFEM1P
T6 sequence: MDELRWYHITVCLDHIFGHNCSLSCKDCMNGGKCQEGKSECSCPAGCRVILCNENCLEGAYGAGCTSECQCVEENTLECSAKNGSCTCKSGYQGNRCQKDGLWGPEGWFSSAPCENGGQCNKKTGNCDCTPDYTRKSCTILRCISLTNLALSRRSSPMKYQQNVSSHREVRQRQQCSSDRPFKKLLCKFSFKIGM

In assay [6] the target is T7, ganglioside induced differentiation associated protein 1, transcript variant 2 (human, UniProt Q8TB36 69-358).
T7 construct: HuProt array protein, full-length recombinant from yeast; also called GDAP1
T7 sequence: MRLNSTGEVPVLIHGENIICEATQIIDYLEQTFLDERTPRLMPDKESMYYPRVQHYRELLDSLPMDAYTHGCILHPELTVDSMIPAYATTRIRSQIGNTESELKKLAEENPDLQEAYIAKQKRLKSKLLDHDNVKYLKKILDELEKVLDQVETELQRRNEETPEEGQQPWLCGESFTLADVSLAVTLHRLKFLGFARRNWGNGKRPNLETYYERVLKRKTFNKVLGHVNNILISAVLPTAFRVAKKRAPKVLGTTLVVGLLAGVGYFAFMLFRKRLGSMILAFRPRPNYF

The next assay concerns the target T8, zinc finger protein 8 (human, UniProt P17098 1-575).
T8 construct: HuProt array protein, full-length recombinant from yeast; also called ZNF8

The target in assay [7] is T9, SATB homeobox 2, transcript variant 2 (human, UniProt Q9UPW6 1-733).
T9 construct: HuProt array protein, full-length recombinant from yeast; also called SATB2
T9 sequence: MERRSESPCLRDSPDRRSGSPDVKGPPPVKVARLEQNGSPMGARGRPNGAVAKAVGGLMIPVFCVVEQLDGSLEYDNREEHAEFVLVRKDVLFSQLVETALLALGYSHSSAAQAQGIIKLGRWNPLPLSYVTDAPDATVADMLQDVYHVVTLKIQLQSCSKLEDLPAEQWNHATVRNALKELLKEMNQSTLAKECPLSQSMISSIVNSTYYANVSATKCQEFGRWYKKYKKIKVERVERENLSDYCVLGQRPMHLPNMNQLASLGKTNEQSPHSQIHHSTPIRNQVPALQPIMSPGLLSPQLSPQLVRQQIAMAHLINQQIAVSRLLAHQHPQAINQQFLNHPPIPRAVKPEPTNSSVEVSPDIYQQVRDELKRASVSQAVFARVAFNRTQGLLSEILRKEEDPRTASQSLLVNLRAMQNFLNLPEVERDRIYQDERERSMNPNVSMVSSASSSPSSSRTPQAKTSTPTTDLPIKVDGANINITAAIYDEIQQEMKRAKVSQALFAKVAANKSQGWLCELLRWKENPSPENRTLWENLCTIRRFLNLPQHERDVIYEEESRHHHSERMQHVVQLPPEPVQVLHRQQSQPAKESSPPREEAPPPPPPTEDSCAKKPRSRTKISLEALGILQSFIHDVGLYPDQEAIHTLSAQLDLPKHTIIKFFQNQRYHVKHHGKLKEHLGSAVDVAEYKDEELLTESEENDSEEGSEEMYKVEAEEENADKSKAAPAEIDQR

Assay [8] addresses T10, endosome associated trafficking regulator 1, transcript variant 2 (human, UniProt Q96C92 59-435).
T10 construct: HuProt array protein, full-length recombinant from yeast; also called SDCCAG3
T10 chain: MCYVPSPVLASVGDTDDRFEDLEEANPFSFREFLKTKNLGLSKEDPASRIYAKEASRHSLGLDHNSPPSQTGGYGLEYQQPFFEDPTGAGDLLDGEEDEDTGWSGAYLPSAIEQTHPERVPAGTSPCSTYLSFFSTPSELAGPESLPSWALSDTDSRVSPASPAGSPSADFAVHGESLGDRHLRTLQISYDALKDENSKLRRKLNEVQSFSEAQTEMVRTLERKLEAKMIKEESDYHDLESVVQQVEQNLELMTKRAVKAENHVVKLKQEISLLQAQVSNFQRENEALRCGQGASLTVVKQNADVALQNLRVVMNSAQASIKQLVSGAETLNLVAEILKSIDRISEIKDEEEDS

In assay [9] the target is T11, charged multivesicular body protein 4B (human, UniProt Q9H444 2-224).
T11 construct: HuProt array protein, full-length recombinant from yeast; also called CHMP4B
T11 sequence: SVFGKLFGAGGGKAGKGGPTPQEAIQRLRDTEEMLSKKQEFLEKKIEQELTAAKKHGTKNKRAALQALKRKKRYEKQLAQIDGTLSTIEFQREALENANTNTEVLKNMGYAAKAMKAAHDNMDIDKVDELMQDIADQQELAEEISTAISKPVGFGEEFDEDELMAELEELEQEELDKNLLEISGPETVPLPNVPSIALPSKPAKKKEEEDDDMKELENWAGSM

We go through six molecules from patent publication US20220204643A1 (published 2022).

T3 sequence (Q16623 whole entry, change not shown): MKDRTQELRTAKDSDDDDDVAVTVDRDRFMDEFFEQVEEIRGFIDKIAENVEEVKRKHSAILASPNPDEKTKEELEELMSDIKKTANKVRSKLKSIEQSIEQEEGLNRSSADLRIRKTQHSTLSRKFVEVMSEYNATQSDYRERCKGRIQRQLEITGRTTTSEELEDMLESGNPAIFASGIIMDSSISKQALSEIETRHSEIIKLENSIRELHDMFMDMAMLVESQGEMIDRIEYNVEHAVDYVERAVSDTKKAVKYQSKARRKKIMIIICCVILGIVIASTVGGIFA
T8 sequence (P17098 whole entry): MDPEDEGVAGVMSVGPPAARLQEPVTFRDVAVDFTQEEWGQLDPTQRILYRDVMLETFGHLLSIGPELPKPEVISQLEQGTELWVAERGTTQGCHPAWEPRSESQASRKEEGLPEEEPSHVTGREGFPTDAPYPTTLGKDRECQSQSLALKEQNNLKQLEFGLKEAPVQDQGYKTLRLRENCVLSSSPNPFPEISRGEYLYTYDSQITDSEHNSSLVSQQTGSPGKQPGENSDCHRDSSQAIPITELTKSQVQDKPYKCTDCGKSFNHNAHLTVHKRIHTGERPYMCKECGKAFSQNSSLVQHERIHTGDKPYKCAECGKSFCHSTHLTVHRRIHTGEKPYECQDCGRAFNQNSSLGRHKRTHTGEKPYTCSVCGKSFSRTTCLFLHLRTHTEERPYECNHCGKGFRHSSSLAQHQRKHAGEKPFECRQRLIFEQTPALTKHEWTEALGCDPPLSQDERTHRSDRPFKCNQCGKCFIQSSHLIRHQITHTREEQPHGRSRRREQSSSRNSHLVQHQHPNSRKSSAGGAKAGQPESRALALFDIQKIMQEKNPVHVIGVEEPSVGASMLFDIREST
T2 sequence (P98170 whole entry, change not shown): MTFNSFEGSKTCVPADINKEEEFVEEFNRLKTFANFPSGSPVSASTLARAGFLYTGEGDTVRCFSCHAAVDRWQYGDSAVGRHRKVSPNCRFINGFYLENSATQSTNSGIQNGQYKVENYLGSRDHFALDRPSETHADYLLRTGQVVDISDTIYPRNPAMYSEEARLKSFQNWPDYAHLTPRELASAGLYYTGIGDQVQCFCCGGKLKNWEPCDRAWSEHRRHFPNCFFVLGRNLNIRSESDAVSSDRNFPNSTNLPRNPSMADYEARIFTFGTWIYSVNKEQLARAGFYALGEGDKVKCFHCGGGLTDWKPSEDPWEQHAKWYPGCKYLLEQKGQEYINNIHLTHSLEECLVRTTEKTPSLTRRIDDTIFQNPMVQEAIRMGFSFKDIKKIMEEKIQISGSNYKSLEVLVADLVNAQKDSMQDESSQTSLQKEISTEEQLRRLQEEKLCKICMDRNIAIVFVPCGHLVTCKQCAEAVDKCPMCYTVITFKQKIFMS

B1: TBRE1024 (antibody, V domains shown)
VH: PVQLQESGPGLVKPSETLSLTCTVSGGSISSDNYYWSWLRQHPGKGLEWIGYIYFSVTTYYNPSLKSRVTISLDTSKNQFSLKLSSVTAADTAVYYCASGYVSFDLWGQGTLVTVSS
VL: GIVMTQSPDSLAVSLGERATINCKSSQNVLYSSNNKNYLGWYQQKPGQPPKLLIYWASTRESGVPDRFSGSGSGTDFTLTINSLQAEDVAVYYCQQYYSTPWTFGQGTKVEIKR
notes: detected with anti-human IgG Fc
B1: the binding result in [1] was “binds”.

B2: TBRE1032 (antibody, V domains shown)
VH: EVQLVESGGGLVQPGGSLRLSCAASGFTFSSYDFHWVRQPTGKGLEWVSAIGTAGDTLYLDSVKGRFTISRENAKNSLYLQMNSLRAGDTAVYYCARVNWNSDTFDSWGQGTLVTVSS
VL: VSSELTQDPAVSVALGQTVRITCQGDSLRRYYASWYQQKAGQAPILVIYGENNRPSGIPDRFSGSGSGNTASLTITGAQAEDEADYYCDSRDSSGNLVVFGGGTKLTVL
notes: as for B1
In the case of B2, in [2], the binding result was “binds”.

B3: TBRE1027 (antibody, V domains shown)
VH: EVQLLESGGGLVQPGGSLRLSCAASGFTFSSYAMSWVRQAPGKGLEWVSTISGSGHSTYYADSVKGRFTISRDNSKNTLYLQMNSLRAEDTAVYYCAKSTLGGGFDFWGQGTLVTVSS
VL: DIQMTQSPFSLSASVGDRVTITCRASQSISSYLNWYQQKPGKAPKLLIYAASSLQSGVPSRFSGSGSGTDFTLTISSLQPEDFATYYCHQSYSTSLTFGGGTKVEIKR
notes: as for B1
Consider B3, for which the binding result (in assay [3]; in [4]; with DEAD-box helicase 18) was “binds” each time.

B4: TBRE1036 (antibody, V domains shown)
VH: QVQLVESGGGVVQPGRSLRLSCAASGFTFSSYAMHWVRQAPGKGLEWVAVISYDGSNKYYADSLKGRFTISRDNSKDTLYLQVNSLRPEDTAVYYCARVNIAAAGTLDYWGQGTLVTVSS
VL: EIVLTQSPGTLSLSPGERATLSCRASQSVSSRYLAWYQQKPGQAPRLLIHGASSRATGIPDRFSGSGSGTDFTLTISRLEPEDFAVYYCQQYGSAWTFGQGTKVEIKR
notes: as for B1
As to B4, the binding result in [5] was “binds”.

B5: TBRE1017 (antibody, V domains shown)
VH: QVQLVQSGAEVKKPGASVKVSCKASGYNFRDYYMHWVRQAPGQGLEWMGWINPNSGGTISAQNFQGRVTMTRDTSISTAYMEVNSLRSDDTAVYYCAVGMVTDGFEIWGQGTLVTVSS
VL: PYELTQPPSVSVSPGQTARITCSGDALPNENAFWYQQKPGQAPVLVIYEDIKRPSGIPERFSGSSSGTTVTLTISGVQAEDEADYYCQSVDITSTWVFGGGTKLTVLG
notes: as for B1
For the molecule B5, the binding result (in [6]; with zinc finger protein 8; in assay [7]) was “binds” each time.

B6: TBRE1034 (antibody, V domains shown)
VH: QVQLVESGGGLVEPGGSLRLSCAASGFTFSDYYMSWIRQAPGKRLEWISHMSSGGNRRHYADSVRGRFTISRDNAKNSLYLQMNSMRADDTAVYYCARDKRSGMTSDRRIDYWGQGTRVTVSS
VL: DIQMTQSPSSLSASVGDRITITCRASQSVGTYLSWFQQKPGKAPKLLIYAASSLQSGVPSRFSGSGSGTDFTLTISSLQPEDFATYFCQQSYSVPPWTFGQGTKVEIKR
notes: as for B1
For B6, the binding result in assay [8] and in assay [9] was “binds” throughout.
